From US20100272721A1, “TREATMENT OF CANCER” (Biogen Idec MA Inc., priority 2005, published 2010) come the findings set out here.

Assay [1] relates to Human pancreatic cells (BxPc-3). Briefly: BxPc-3 xenograft pancreatic cancer model. The format is in vivo. The note with it: BxPc-3 subcutaneous in nude mice; IP administration started after 2 weeks; versus control antibody (P1.17) or PBS; FIG. 2. The procedure: FIG. 2 is a graph showing growth of human pancreatic tumor cell line BxPc-3 in a xenograft animal model, with and without anti-Tweak antibody (P2D10) treatment.
Human pancreatic cells (BxPc-3) were injected subcutaneously into nude mice. After 2 weeks, when the tumors were […], the mice (9-10 per group) were treated with an anti-TWEAK antibody (P2D10), a control antibody (P1.17) or PBS, by IP administration.

The test system of assay [2] is mammary epithelial line Eph4. As to the kind of experiment: 3-D culture model system of the mammary epithelial line Eph4. Format: cell-based. The note with it: Eph4 3-D culture. An excerpt: We detect Fn14 protein in human tumor cell lines and in xenograft and primary breast tumor samples. Fn14 expression is detected in the majority of human breast tumors but not in normal breast tissue samples. […] The capacity to promote proliferation, inhibit differentiation and induce invasion is consistent with a role for TWEAK in tumorigenesis.

Assay [3] has as its system Human pancreatic tumor cells BxPc3, Panc1 and MiaPaCa2. As to the kind of experiment: cell invasion assay on matrigel-coated membranes in transwell plates. Format: cell-based. As to conditions: Tweak 50 ng/ml; BxPc-3, Panc-1 and MiaPaCa; measured after 48 hours; FIG. 1. As to the method: FIG. 1 is a bar graph showing results from an invasion assay of human pancreatic cell lines with and without added Tweak (Tk), and in the presence or absence of an anti-Tweak antibody (p5g9). HGF is a positive control.
To measure the effect of Tweak on pancreatic tumor cell line invasiveness, cell invasion assays were performed. Human pancreatic tumor cells BxPc3, Panc1 and MiaPaCa2 were plated on matrigel-coated membranes in transwell plates. TWEAK was added to the medium, and the number of cells that invade was measured after 48 hours. BSA was used as a negative control and HGF as a positive control in these experiments.

B1: P2D10: exemplary murine anti-Tweak antibody; heavy chain variable domain SEQ ID NO:3, light chain variable domain SEQ ID NO:4 (antibody, listed as Mus musculus, V domains shown)
VH: EVQLVESGGGLVRPGGSLKLFCAASGFTFSRYAMSWVRQSPEKRLEWVAEISSGGSYPYYPDTVTGRFTISRDNAKNTLYLEMSSLKSEDTAMYYCARVLYYDYDGDRIEVMDYWGQGTAVIVSS
VL: DVVMTQSPLSLSVSLGDQASISCRSSQSLVSSKGNTYLHWYLQKPGQSPKFLIYKVSNRFSGVPDRFSGSGSGTDFTLKISRVAAEDLGVYFCSQSTHFPRTFGGGTTLEIK
Turning to B1, in assay [1], the tumor size result is on record as “statistically significant reduction in tumor size”.

B2: Tweak: TNF-like weak inducer of apoptosis, a member of the tumor-necrosis factor (TNF) superfamily of cytokines (protein, listed as Homo sapiens)
chain: MAARRSQRRRGRRGEPGTALLVPLALGLGLALACLGLLLAVVSLGSRASLSAQEPAQEELVAEEDQDPSELNPQTEESQDPAPFLNRLVRPRRSAPKGRKTRARRAIAAHYEVHPRPGQDGAQAGVDGTVSGWEEARINSSSPLRYNRQIGEFIVTRAGLYYLYCQVHFDEGKAVYLKLDLLVDGVLALRCLEEFSATAASSLGPQLRLCQVSGLLALRPGSSLRIRTLPWAHLKAAPFLTYFGLFQVH
Regarding B2, in assay [2] (TWEAK treatment), the “morphogenic phenotype (proliferation, invasiveness, functional differentiation)” value is “induces a dramatic branching morphogenic phenotype”. Further, in assay [2] (following TWEAK treatment), the “matrix metalloproteinase MMP-9 expression” value is recorded as “significantly up-regulated”. The “invasion of human pancreatic cell lines (number of cells that invade)” value in assay [3] was “induced invasion”.
